# Test results as given in patent US20240124553A1.
# Where “and” joins values, the source holds several entries; their conditions need not be identical. Equal values may be shown once. Read-outs that look alike come from different tables or passages of the source.
# Tests used:
# [1] = target: CHIKV virus-like particles (strain 37997) (chikungunya virus)
# [2] = target: CHIKV E2-6K-E1 envelope proteins (strain S27) with E2 C201A (Chikungunya virus strain S27) (UniProt Q8JUX5); assay: flow cytometry, transfected 293T cells
# [3] = target: CHIKV E2-6K-E1 envelope proteins (strain S27) with E2 C203A (Chikungunya virus strain S27) (UniProt Q8JUX5); assay: flow cytometry, transfected 293T cells
# [4] = target: CHIKV E2-6K-E1 envelope proteins (strain S27) with E2 C220A (Chikungunya virus strain S27) (UniProt Q8JUX5); assay: flow cytometry, transfected 293T cells
# [5] = target: CHIKV E2-6K-E1 envelope proteins (strain S27) with E2 G186A (Chikungunya virus strain S27) (UniProt Q8JUX5); assay: flow cytometry, transfected 293T cells
# [6] = target: CHIKV E2-6K-E1 envelope proteins (strain S27) with E2 G204A (Chikungunya virus strain S27) (UniProt Q8JUX5); assay: flow cytometry, transfected 293T cells
# [7] = target: CHIKV E2-6K-E1 envelope proteins (strain S27) with E2 G205A (Chikungunya virus strain S27) (UniProt Q8JUX5); assay: flow cytometry, transfected 293T cells
# [8] = target: CHIKV E2-6K-E1 envelope proteins (strain S27) with E2 G209A (Chikungunya virus strain S27) (UniProt Q8JUX5); assay: flow cytometry, transfected 293T cells
# [9] = target: CHIKV E2-6K-E1 envelope proteins (strain S27) with E2 I190A (Chikungunya virus strain S27) (UniProt Q8JUX5); assay: flow cytometry, transfected 293T cells
# [10] = target: CHIKV E2-6K-E1 envelope proteins (strain S27) with E2 I211A (Chikungunya virus strain S27) (UniProt Q8JUX5); assay: flow cytometry, transfected 293T cells
# [11] = target: CHIKV E2-6K-E1 envelope proteins (strain S27) with E2 I217A (Chikungunya virus strain S27) (UniProt Q8JUX5); assay: flow cytometry, transfected 293T cells
# [12] = target: CHIKV E2-6K-E1 envelope proteins (strain S27) with E2 K189A (Chikungunya virus strain S27) (UniProt Q8JUX5); assay: flow cytometry, transfected 293T cells
# [13] = target: CHIKV E2-6K-E1 envelope proteins (strain S27) with E2 K200A (Chikungunya virus strain S27) (UniProt Q8JUX5); assay: flow cytometry, transfected 293T cells
# [14] = target: CHIKV E2-6K-E1 envelope proteins (strain S27) with E2 K215A (Chikungunya virus strain S27) (UniProt Q8JUX5); assay: flow cytometry, transfected 293T cells
# [15] = target: CHIKV E2-6K-E1 envelope proteins (strain S27) with E2 L180A (Chikungunya virus strain S27) (UniProt Q8JUX5); assay: flow cytometry, transfected 293T cells
# [16] = target: CHIKV E2-6K-E1 envelope proteins (strain S27) with E2 L181A (Chikungunya virus strain S27) (UniProt Q8JUX5); assay: flow cytometry, transfected 293T cells
# [17] = target: CHIKV E2-6K-E1 envelope proteins (strain S27) with E2 L210A (Chikungunya virus strain S27) (UniProt Q8JUX5); assay: flow cytometry, transfected 293T cells
# [18] = target: CHIKV E2-6K-E1 envelope proteins (strain S27) with E2 N187A (Chikungunya virus strain S27) (UniProt Q8JUX5); assay: flow cytometry, transfected 293T cells
# [19] = target: CHIKV E2-6K-E1 envelope proteins (strain S27) with E2 N193A (Chikungunya virus strain S27) (UniProt Q8JUX5); assay: flow cytometry, transfected 293T cells
# [20] = target: CHIKV E2-6K-E1 envelope proteins (strain S27) with E2 N202A (Chikungunya virus strain S27) (UniProt Q8JUX5); assay: flow cytometry, transfected 293T cells
# [21] = target: CHIKV E2-6K-E1 envelope proteins (strain S27) with E2 N218A (Chikungunya virus strain S27) (UniProt Q8JUX5); assay: flow cytometry, transfected 293T cells
# [22] = target: CHIKV E2-6K-E1 envelope proteins (strain S27) with E2 N219A (Chikungunya virus strain S27) (UniProt Q8JUX5); assay: flow cytometry, transfected 293T cells
# [23] = target: CHIKV E2-6K-E1 envelope proteins (strain S27) with E2 Q183A (Chikungunya virus strain S27) (UniProt Q8JUX5); assay: flow cytometry, transfected 293T cells
# [24] = target: CHIKV E2-6K-E1 envelope proteins (strain S27) with E2 Q184A (Chikungunya virus strain S27) (UniProt Q8JUX5); assay: flow cytometry, transfected 293T cells
# [25] = target: CHIKV E2-6K-E1 envelope proteins (strain S27) with E2 Q195A (Chikungunya virus strain S27) (UniProt Q8JUX5); assay: flow cytometry, transfected 293T cells
# [26] = target: CHIKV E2-6K-E1 envelope proteins (strain S27) with E2 R198A (Chikungunya virus strain S27) (UniProt Q8JUX5); assay: flow cytometry, transfected 293T cells
# [27] = target: CHIKV E2-6K-E1 envelope proteins (strain S27) with E2 S182A (Chikungunya virus strain S27) (UniProt Q8JUX5); assay: flow cytometry, transfected 293T cells
# [28] = target: CHIKV E2-6K-E1 envelope proteins (strain S27) with E2 S185A (Chikungunya virus strain S27) (UniProt Q8JUX5); assay: flow cytometry, transfected 293T cells
# [29] = target: CHIKV E2-6K-E1 envelope proteins (strain S27) with E2 S194A (Chikungunya virus strain S27) (UniProt Q8JUX5); assay: flow cytometry, transfected 293T cells
# [30] = target: CHIKV E2-6K-E1 envelope proteins (strain S27) with E2 S206A (Chikungunya virus strain S27) (UniProt Q8JUX5); assay: flow cytometry, transfected 293T cells
# [31] = target: CHIKV E2-6K-E1 envelope proteins (strain S27) with E2 T191A (Chikungunya virus strain S27) (UniProt Q8JUX5); assay: flow cytometry, transfected 293T cells
# [32] = target: CHIKV E2-6K-E1 envelope proteins (strain S27) with E2 T196A (Chikungunya virus strain S27) (UniProt Q8JUX5); assay: flow cytometry, transfected 293T cells
# [33] = target: CHIKV E2-6K-E1 envelope proteins (strain S27) with E2 T212A (Chikungunya virus strain S27) (UniProt Q8JUX5); assay: flow cytometry, transfected 293T cells
# [34] = target: CHIKV E2-6K-E1 envelope proteins (strain S27) with E2 V188A (Chikungunya virus strain S27) (UniProt Q8JUX5); assay: flow cytometry, transfected 293T cells
# [35] = target: CHIKV E2-6K-E1 envelope proteins (strain S27) with E2 V192A (Chikungunya virus strain S27) (UniProt Q8JUX5); assay: flow cytometry, transfected 293T cells
# [36] = target: CHIKV E2-6K-E1 envelope proteins (strain S27) with E2 V197A (Chikungunya virus strain S27) (UniProt Q8JUX5); assay: flow cytometry, transfected 293T cells
# [37] = target: CHIKV E2-6K-E1 envelope proteins (strain S27) with E2 V216A (Chikungunya virus strain S27) (UniProt Q8JUX5); assay: flow cytometry, transfected 293T cells
# [38] = target: CHIKV E2-6K-E1 envelope proteins (strain S27) with E2 Y199A (Chikungunya virus strain S27) (UniProt Q8JUX5); assay: flow cytometry, transfected 293T cells
# [39] = target: CHIKV virus-like particles (strain 37997) (chikungunya virus); remark: listed apart in the source
# [40] = target: CHIKV virus-like particles (strain 37997) (chikungunya virus); remark: listed apart in the source
# [41] = target: CHIKV virus-like particles (strain 37997) (chikungunya virus); remark: listed apart in the source
# [42] = target: CHIKV virus-like particles (strain 37997) (chikungunya virus); remark: listed apart in the source
# [43] = target: CHIKV virus-like particles (strain 37997) (chikungunya virus); remark: listed apart in the source
# [44] = target: CHIKV virus-like particles (strain 37997) (chikungunya virus); assay: SPR, […], kinetic fit ([…]
# [45] = target: CHIKV strain 181/25 (virions; also E2-E1 shown on infected cells) (chikungunya virus); assay: cryo-EM of infectious CHIKV with Mxra8
# [46] = target: Sindbis virus strain TR339 (virions; also structural proteins on infected Vero cells) (Sindbis virus)
# [47] = target: CHIKV virus-like particles (strain 37997) (chikungunya virus); remark: listed apart in the source
# [48] = target: CHIKV virus-like particles (strain 37997) (chikungunya virus); remark: listed apart in the source
# [49] = target: CHIKV virus-like particles (strain 37997) (chikungunya virus); remark: listed apart in the source
substance,measurement,setting,value
CHK-265 (murine anti-CHIKV mAb) (antibody),EC50 (read off the curve),[1],0.003 µg/mL
IM-CKV063 (antibody),Binding Reactivity (% WT),[2],47.7 % WT
same,Binding Reactivity (% WT),[3],45.1 % WT
same,Binding Reactivity (% WT),[4],95.2 % WT
same,Binding Reactivity (% WT),[5],95.4 % WT
same,Binding Reactivity (% WT),[6],91.5 % WT
same,Binding Reactivity (% WT),[7],62 % WT
same,Binding Reactivity (% WT),[8],99.8 % WT
same,Binding Reactivity (% WT),[9],56.1 % WT
same,Binding Reactivity (% WT),[10],77.2 % WT
same,Binding Reactivity (% WT),[11],69.7 % WT
same,Binding Reactivity (% WT),[12],109 % WT
same,Binding Reactivity (% WT),[13],119 % WT
same,Binding Reactivity (% WT),[14],102 % WT
same,Binding Reactivity (% WT),[15],114 % WT
same,Binding Reactivity (% WT),[16],87.9 % WT
same,Binding Reactivity (% WT),[17],86.3 % WT
same,Binding Reactivity (% WT),[18],114 % WT
same,Binding Reactivity (% WT),[19],85.7 % WT
same,Binding Reactivity (% WT),[20],92.8 % WT
same,Binding Reactivity (% WT),[21],97.6 % WT
same,Binding Reactivity (% WT),[22],98 % WT
same,Binding Reactivity (% WT),[23],101 % WT
same,Binding Reactivity (% WT),[24],121 % WT
same,Binding Reactivity (% WT),[25],78.6 % WT
same,Binding Reactivity (% WT),[26],98.2 % WT
same,Binding Reactivity (% WT),[27],121 % WT
same,Binding Reactivity (% WT),[28],108 % WT
same,Binding Reactivity (% WT),[29],94 % WT
same,Binding Reactivity (% WT),[30],119 % WT
same,Binding Reactivity (% WT),[31],94.8 % WT
same,Binding Reactivity (% WT),[32],83 % WT
same,Binding Reactivity (% WT),[33],108 % WT
same,Binding Reactivity (% WT),[34],114 % WT
same,Binding Reactivity (% WT),[35],98.3 % WT
same,Binding Reactivity (% WT),[36],67.4 % WT
same,Binding Reactivity (% WT),[37],97.7 % WT
same,Binding Reactivity (% WT),[38],79.8 % WT
MAb C9 (antibody),Binding Reactivity (% WT),[2],65 % WT
same,Binding Reactivity (% WT),[3],58.3 % WT
same,Binding Reactivity (% WT),[4],104 % WT
same,Binding Reactivity (% WT),[5],101 % WT
same,Binding Reactivity (% WT),[6],106 % WT
same,Binding Reactivity (% WT),[7],111 % WT
same,Binding Reactivity (% WT),[8],108 % WT
same,Binding Reactivity (% WT),[9],81.8 % WT
same,Binding Reactivity (% WT),[10],126 % WT
same,Binding Reactivity (% WT),[11],110 % WT
same,Binding Reactivity (% WT),[12],129 % WT
same,Binding Reactivity (% WT),[13],144 % WT
same,Binding Reactivity (% WT),[14],143 % WT
same,Binding Reactivity (% WT),[15],126 % WT
same,Binding Reactivity (% WT),[16],110 % WT
same,Binding Reactivity (% WT),[17],105 % WT
same,Binding Reactivity (% WT),[18],123 % WT
same,Binding Reactivity (% WT),[19],113 % WT
same,Binding Reactivity (% WT),[20],96.2 % WT
same,Binding Reactivity (% WT),[21],72 % WT
same,Binding Reactivity (% WT),[22],117 % WT
same,Binding Reactivity (% WT),[23],176 % WT
same,Binding Reactivity (% WT),[24],135 % WT
same,Binding Reactivity (% WT),[25],129 % WT
same,Binding Reactivity (% WT),[26],122 % WT
same,Binding Reactivity (% WT),[27],132 % WT
same,Binding Reactivity (% WT),[28],105 % WT
same,Binding Reactivity (% WT),[29],119 % WT
same,Binding Reactivity (% WT),[30],96 % WT
same,Binding Reactivity (% WT),[31],118 % WT
same,Binding Reactivity (% WT),[32],99.8 % WT
same,Binding Reactivity (% WT),[33],125 % WT
same,Binding Reactivity (% WT),[34],141 % WT
same,Binding Reactivity (% WT),[35],114 % WT
same,Binding Reactivity (% WT),[36],83.8 % WT
same,Binding Reactivity (% WT),[37],112 % WT
same,Binding Reactivity (% WT),[38],122 % WT
Mxra8 cleaved from Mxra8-HRV-Fc (soluble monomeric mouse Mxra8) (from UniProt Q9DBV4 23-336) (receptor),Kd,[39],200 nM
same,Mxra8 molecules per virion (molecules per virion),[40],240
same,Kd,[41],84 nM and 270 nM
same,Kd,[42],60 nM and 300 nM
same,Kd,[43],183 nM and 224 nM
same,kon,[43],37000 M⁻¹ s⁻¹
same,t1/2,[43],1.8 min
same,Kd,[44],83.9 nM and 270 nM
same,Mxra8 proteins bound per particle (proteins per particle),[45],60
cleaved human Mxra8 (human monomeric MXRA8) (from UniProt Q9BRK3 20-341) (receptor),Kd,[42],60 nM and 300 nM
same,Kd,[44],98.3 nM and 210 nM
duck MXRA8-Fc (Fc fusion),neutralisation of SINV-GFP infection; IC50 (read off the curve),[46],1 µg/mL
monovalent Du-D1-Mo-D2 MXRA8 (cleaved from the Fc fusion with GlySERIAS) (from UniProt Q9DBV4 23-65; Q9DBV4 195-293) (receptor),Kd,[47],545 nM
same,Kd,[48],665 nM
monovalent mouse MXRA8 (cleaved from mouse MXRA8-Fc with GlySERIAS) (from UniProt Q9DBV4 20-340) (receptor),Kd,[47],68 nM
same,Kd,[49],76 nM
